Reverse-splicing fitness data for 83 variants are collected here from the RNAGym collection of RNA variant scans (doi:10.1093/molbev/msab373).

The labels stand for the following.
B1: Azoarcus group I ribozyme (parent)
chain: GUGCCUUGCGCCGGGAAACCACGCAAGGGAUGGUGUCAAAUUCGGCGAAACCUAAGCGCCCGCCCGGGCGUAUGGCAACGCCGAGCCAAGCUUCGGCGCCUGCGCCGAUGAAGGUGUAGAGACUAGACGGCACCCACCUAAGGCAAACGCUAUGGUGAAGGCAUAGUCCAGGGAGUGGCGAAAGUCACACAAACCGG

The series covers variants of B1. The experiment in a line: reverse-splicing fitness (ratio to wild type); higher = more active; in vitro selection; Mg2+ level not given. In outline:
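An in vitro group I ribozyme library with randomized positions was T7-transcribed and gel-purified. In triplicate, 10 pmol RNA in EPPS pH 7.5 was reacted with 50 pmoles of a 30-nt RNA substrate for 1 h at 37 °C across several added MgCl2 levels (1–48 mM), then stopped with EDTA. Products were reverse transcribed from a substrate-complementary primer, PCR-amplified and sequenced (HiSeq 4000). Fitness is a variant's read proportion after selection over that before, normalised to wild type.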
For A111C A120C C150G C169U U176C, the reverse-splicing fitness amounted to 0.014.

As for A111C A120C C150G C169U U176A, the reverse-splicing fitness worked out at 0.00759.

Consider A111C A120C C150G C169U U176G, for which the reverse-splicing fitness was found to be 0.00523.

Take A111C A120C A145C C150U C169A U176C: the reverse-splicing fitness amounted to 0.005.

For the variant A111C A120C A145C C150U C169A U176G, the reverse-splicing fitness amounted to 0.00703.

As to A111C A120C A145C C150U C169A U176A, the reverse-splicing fitness was 0.0107.

Consider A111C A120C A145C C169A U176C, for which the reverse-splicing fitness was found to be 0.00756.

Regarding A111C A120C A145C C169A U176A, the reverse-splicing fitness was 0.0126.

As for A111C A120C A145C C169A U176G, the reverse-splicing fitness came out at 0.00493.

On to A111C A120G A145C C150U C169A U176G, for which the reverse-splicing fitness came out at 0.00455.

Regarding A111C A120G A145C C150U C169A U176C, the reverse-splicing fitness is 0.011.

A111C A120G A145C C150U C169A U176A: the reverse-splicing fitness came out at 0.0104.

Consider A111C A120C A145G C150A C169U, for which the reverse-splicing fitness turned out to be 0.0324.

Regarding A111C A120C A145G C150A C169A, the reverse-splicing fitness came out at 0.0101.

Regarding A111C A120C A145G C150A C169G, the reverse-splicing fitness amounted to 0.00782.

A111C A120C C150A C169U: the reverse-splicing fitness turned out to be 0.0222.

Consider A111C A120C C150A C169A, for which the reverse-splicing fitness stood at 0.00999.

In the case of A111C A120C C150A C169G, the reverse-splicing fitness is 0.00716.

In the case of A111C A120C A145C C150G U176C, the reverse-splicing fitness worked out at 0.0391.

With A111C A120C A145C C150G U176A, the reverse-splicing fitness was found to be 0.0198.

For the variant A111C A120C A145C C150G U176G, the reverse-splicing fitness is 0.00444.

Regarding A111C A120C A145G C150G C169G U176G, the reverse-splicing fitness worked out at 0.00553.

For the variant A111C A120C A145G C150G C169G U176C, the reverse-splicing fitness came out at 0.0119.

On to A111C A120C A145G C150G C169G U176A, for which the reverse-splicing fitness is 0.0102.

Consider A111C A120C A145U C150A C169G, for which the reverse-splicing fitness is 0.00628.

Consider A111C A120C A145U C150A C169A, for which the reverse-splicing fitness is 0.00839.

Take A111C A120C A145U C150A C169U: the reverse-splicing fitness turned out to be 0.024.

Take A111C A120C A145G C150U C169A: the reverse-splicing fitness came to 0.0131.

Consider A111C A120C A145G C150U C169G, for which the reverse-splicing fitness was 0.00981.

With A111C A120C A145G C150U C169U, the reverse-splicing fitness turned out to be 0.147.

With A111C A120C A145G C169U U176A, the reverse-splicing fitness stood at 0.033.

A111C A120C A145G C169U U176C: the reverse-splicing fitness was found to be 0.0425.

As for A111C A120C A145G C169U U176G, the reverse-splicing fitness was 0.00591.

A111C A120G A145G C150G C169U U176A: the reverse-splicing fitness came out at 0.0115.

Turning to A111C A120G A145G C150G C169U U176C, the reverse-splicing fitness stood at 0.0161.

As to A111C A120G A145G C150G C169U U176G, the reverse-splicing fitness is 0.00619.

As for A111C A120C A145C C150G C169U U176C, the reverse-splicing fitness was 0.0163.

For A111C A120C A145C C150G C169U U176A, the reverse-splicing fitness is 0.00995.

With A111C A120C A145C C150G C169U U176G, the reverse-splicing fitness came to 0.0054.

A111C A120C A145C C150U C169G U176C: the reverse-splicing fitness is 0.0118.

For the variant A111C A120C A145C C150U C169G U176A, the reverse-splicing fitness came out at 0.0202.

Take A111C A120C A145C C150U C169G U176G: the reverse-splicing fitness is 0.00592.

A111C A120C A145U C150A U176C: the reverse-splicing fitness came out at 0.0526.

As for A111C A120C A145U C150A U176G, the reverse-splicing fitness was found to be 0.00986.

As for A111C A120C A145U C150A U176A, the reverse-splicing fitness was 0.0359.

As to A111C A120G A145G C150U, the reverse-splicing fitness stood at 0.139.

With A111C A120G A145G C150G, the reverse-splicing fitness worked out at 0.0228.

On to A111C A120G A145G C150A, for which the reverse-splicing fitness was 0.0307.

For A111C A120G A145C C150U C169U U176G, the reverse-splicing fitness is 0.00528.

As to A111C A120G A145C C150U C169U U176C, the reverse-splicing fitness stood at 0.0192.

With A111C A120G A145C C150U C169U U176A, the reverse-splicing fitness was found to be 0.0247.

On to A111C A120C A145U C169G U176C, for which the reverse-splicing fitness came out at 0.0123.

Turning to A111C A120C A145U C169G U176A, the reverse-splicing fitness amounted to 0.0103.

For the variant A111C A120C A145U C169G U176G, the reverse-splicing fitness came out at 0.00445.

As for A111C A120G A145C C169A U176C, the reverse-splicing fitness amounted to 0.0169.

On to A111C A120G A145C C169A U176A, for which the reverse-splicing fitness came to 0.0154.

For A111C A120G A145C C169A U176G, the reverse-splicing fitness turned out to be 0.00362.

A111C A120C A145C C169A: the reverse-splicing fitness amounted to 0.00953.

Take A111C A120C A145C C169U: the reverse-splicing fitness was determined as 0.17.

For the variant A111C A120C A145C C169G, the reverse-splicing fitness was 0.0105.

Consider A111C A120G A145C C150A C169A U176C, for which the reverse-splicing fitness turned out to be 0.00698.

Consider A111C A120G A145C C150A C169A U176G, for which the reverse-splicing fitness turned out to be 0.0054.

A111C A120G A145C C150A C169A U176A: the reverse-splicing fitness amounted to 0.0112.

On to A111C A120C C150G C169G U176A, for which the reverse-splicing fitness was 0.00796.

For A111C A120C C150G C169G U176C, the reverse-splicing fitness was found to be 0.00683.

As to A111C A120C C150G C169G U176G, the reverse-splicing fitness amounted to 0.00564.

With A111C A120C A145G C169A U176C, the reverse-splicing fitness was 0.0284.

A111C A120C A145G C169A U176G: the reverse-splicing fitness amounted to 0.0054.

As to A111C A120C A145G C169A U176A, the reverse-splicing fitness was found to be 0.0222.

Regarding A111C A120C C150U C169U U176A, the reverse-splicing fitness worked out at 0.0275.

Take A111C A120C C150U C169U U176C: the reverse-splicing fitness was 0.0327.

For A111C A120C C150U C169U U176G, the reverse-splicing fitness amounted to 0.0066.

Regarding A111C A120C A145G C150U C169A U176G, the reverse-splicing fitness was 0.00559.

On to A111C A120C A145G C150U C169A U176A, for which the reverse-splicing fitness was 0.014.

With A111C A120C A145G C150U C169A U176C, the reverse-splicing fitness was determined as 0.0144.

Regarding A111C A120G A145C C150G C169A U176G, the reverse-splicing fitness worked out at 0.0045.

A111C A120G A145C C150G C169A U176C: the reverse-splicing fitness turned out to be 0.00838.

Take A111C A120G A145C C150G C169A U176A: the reverse-splicing fitness is 0.00964.

As for A111C A120G A145C C169U U176G, the reverse-splicing fitness turned out to be 0.00492.

Consider A111C A120G A145C C169U U176C, for which the reverse-splicing fitness came out at 0.0394.

Take A111C A120G A145C C169U U176A: the reverse-splicing fitness amounted to 0.0395.

Regarding A111C A120C A145U C150A C169U U176A, the reverse-splicing fitness was 0.0195.

For A111C A120C A145U C150A C169U U176C, the reverse-splicing fitness is 0.0144.
